In general, Kd refers to the equilibrium constant for the complex coming apart.

The target of the test is pxEBN4-ACE2-AAA-His (human) (UniProt Q9BYF1).

“SA, Beta, pxENB9-FLS-B.1.351 (from UniProt P0DTC2 15-1213) (ligand)” registered a Kd of 1.57 nM. That is a single-digit nanomolar value.
Consider “UK, Alpha, pxENB9-FLS (from UniProt P0DTC2 15-1213) (ligand)”, for which the Kd was determined as 0.00116 nM.

Values taken from US20240400618A1.
